Experimental data published in PMC5374532, “Rational mutagenesis by engineering disulphide bonds improves Kluyveromyces lactis beta-galactosidase for high-temperature industrial applications” (Scientific Reports, 2017).

Biological target: the molecule itself
Assay: AUC; sedimentation velocity, 0.2 mg/mL enzyme, 50 mM Tris-HCl, 150 mM NaCl, pH 7.4, 48 k rpm, c(s) distribution (SEDFIT); self-association, shares of monomer, dimer, trimer and tetramer

B1: Kluyveromyces lactis β-galactosidase (enzyme, UniProt P00723 2-1025, looked up)
chain: SCLIPENLRNPKKVHENRLPTRAYYYDQDIFESLNGPWAFALFDAPLDAPDAKNLDWETAKKWSTISVPSHWELQEDWKYGKPIYTNVQYPIPIDIPNPPTVNPTGVYARTFELDSKSIESFEHRLRFEGVDNCYELYVNGQYVGFNKGSRNGAEFDIQKYVSEGENLVVVKVFKWSDSTYIEDQDQWWLSGIYRDVSLLKLPKKAHIEDVRVTTTFVDSQYQDAELSVKVDVQGSSYDHINFTLYEPEDGSKVYDASSLLNEENGNTTFSTKEFISFSTKKNEETAFKINVKAPEHWTAENPTLYKYQLDLIGSDGSVIQSIKHHVGFRQVELKDGNITVNGKDILFRGVNRHDHHPRFGRAVPLDFVVRDLILMKKFNINAVRNSHYPNHPKVYDLFDKLGFWVIDEADLETHGVQEPFNRHTNLEAEYPDTKNKLYDVNAHYLSDNPEYEVAYLDRASQLVLRDVNHPSIIIWSLGNEACYGRNHKAMYKLIKQLDPTRLVHYEGDLNALSADIFSFMYPTFEIMERWRKNHTDENGKFEKPLILCEYGHAMGNGPGSLKEYQELFYKEKFYQGGFIWEWANHGIEFEDVSTADGKLHKAYAYGGDFKEEVHDGVFIMDGLCNSEHNPTPGLVEYKKVIEPVHIKIAHGSVTITNKHDFITTDHLLFIDKDTGKTIDVPSLKPEESVTIPSDTTYVVAVLKDDAGVLKAGHEIAWGQAELPLKVPDFVTETAEKAAKINDGKRYVSVESSGLHFILDKLLGKIESLKVKGKEISSKFEGSSITFWRPPTNNDEPRDFKNWKKYNIDLMKQNIHGVSVEKGSNGSLAVVTVNSRISPVVFYYGFETVQKYTIFANKINLNTSMKLTGEYQPPDFPRVGYEFWLGDSYESFEWLGRGPGESYPDKKESQRFGLYDSKDVEEFVYDYPQENGNHTDTHFLNIKFEGAGKLSIFQKEKPFNFKISDEYGVDEAAHACDVKRYGRHYLRLDHAIHGVGSEACGPAVLDQYRLKAQDFNFEFDLAFE
notes: β-galactosidase of Kluyveromyces lactis, LAC4 gene (Gene ID 2897170), amplified from plasmid pLX8 and cloned in YEpFLAG; Monomer 118 kDa as printed; also called Kl-β-Gal; native Kl-β-Gal; not shown: FLAG, N-terminal, kept
- stoichiometry N: 2
